{
  "source": "patent US20150111836A1",
  "about": "“CELLULAR APOBEC3 PROTEINS AND MODULATORS THEREOF FOR REGULATING DNA REPAIR PROCESSES AND TREATING PROLIFERATIVE DISEASES” (priority 2012, published 2015)",
  "key": {"A3G [1]": {"target": "T1, A3G (Homo sapiens, UniProt Q9HC16)", "T1 construct": "Myc (C); His6 (C); made in house; host or cells: 293T cells (human embryonic kidney), transfected with pcDNA3.1-A3GMyc-His6, Ni-NTA purified", "T1 sequence (Q9HC16 whole entry)": "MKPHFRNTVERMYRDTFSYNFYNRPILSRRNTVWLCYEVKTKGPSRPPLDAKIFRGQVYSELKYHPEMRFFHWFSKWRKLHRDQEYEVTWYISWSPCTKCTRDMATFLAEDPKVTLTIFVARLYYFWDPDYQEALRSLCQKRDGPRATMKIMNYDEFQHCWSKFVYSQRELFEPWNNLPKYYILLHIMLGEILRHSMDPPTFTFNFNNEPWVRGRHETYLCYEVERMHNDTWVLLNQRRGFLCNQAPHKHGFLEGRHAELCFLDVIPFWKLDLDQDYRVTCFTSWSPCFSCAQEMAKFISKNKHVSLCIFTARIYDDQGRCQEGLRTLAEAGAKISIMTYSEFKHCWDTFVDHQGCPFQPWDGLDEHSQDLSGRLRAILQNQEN", "assay_type": "biochemical", "settings": "for inhibition of A3G deaminase activity: peptide at 1 μM, FIG. 15B; for inhibition of A3G mediated deamination by A3G-derived peptides: 1-100 μM, FIG. 19B", "method": "Deaminase activity of purified enzyme and virion-associated A3G protein was examined as previously described. Briefly, A3G deamination reactions were performed in a total volume of 10 μl in 25 mM Tris, pH 7.0, and 0.01-1 fmol single-stranded (ss) deoxyoligonucleotide substrate at 37° C. The reaction was terminated by heating to 95° C. for 5 min. One μl of the reaction mixture was used for PCR amplification performed in 20 μl buffer S, using the following program: 1 cycle at 95° C. for 3 min, followed by 30 cycles of annealing at 61° C. for 30 s and denaturing at 94° C. for 30 s. Aliquots of the PCR products (10 μl) were incubated with Eco147I restriction enzyme for 1 h at 37° C. Completion of the restriction reaction was verified by using positive-control substrate containing CCU instead of CCC. Restriction-reaction products were loaded onto 14% gels and separated by PAGE. Gels were stained with SYBR gold nucleic acid stain diluted 1:10,000 in 0.5× Tris-Borate-EDTA buffer (TBE, pH 7.8), visualized by UV light (312 nm), captured by an Olympus C-5050 charge-coupled device (CCD) camera and analyzed by optical density (OD) scan using the TINA2.0 densitometry software. Assessment of A3G entrapped in virions was carried out with concentrated viruses stocks of 3-5 μg of p24/μl) suspended in PBS containing Triton X-100 at final concentration of 0.1% (vv) and 50 μg/ml RNase A (Sigma-Aldrich). Deamination reactions were incubated for 1 h at 37° C.\nA panel of 46 HIV-1 Vif-derived 15-mer peptides (obtained through the NIH AIDS Research and Reference Reagent Program) were screened for inhibition of purified A3G-His6 catalytic activity in a standard cytidine deamination assay. […] A fluorescein-conjugated peptide (kindly provided by Dr. Assaf Friedler) was used to assess the peptide uptake by H9 cells."}, "H9 cells [2]": {"tested_on": "H9 cells", "assay": "DSB repair (γ-H2AX staining) in irradiated H9 cells pre-incubated with Vif peptides", "assay_type": "cell-based, human", "settings": "2 h pre-incubation with 100 μM peptide, 4 Gy IR, stained after 8 h", "method": "(§1) Cells were irradiated by exposure to a ^60Co source producing 1 Gy sec^−1 γ-radiation, or mock-irradiated. Following incubation at 37° C., cells were fixed, attached to glass slides by cytospin, permeabilized with detergent and blocked with 10% normal goat serum. Cells were then incubated with A3G-specific rabbit polyclonal antibody, γ-H2AX-specific monoclonal antibody, or RPA32-specific monoclonal antibody, followed by incubation with goat anti-rabbit Cy-5-conjugated antibody, goat anti-mouse Cy-2-conjugated antibody and DAPI. Slides were mounted and examined by Zeiss LSM 710 confocal microscope. Data were collected sequentially using a ×63 objective with 7-fold averaging at a resolution of […], Z-sections were obtained using an optical slice of less than 1 μm. Data were analyzed with the Zen 2009.\nA panel of 46 HIV-1 Vif-derived 15-mer peptides (obtained through the NIH AIDS Research and Reference Reagent Program) were screened for inhibition of purified A3G-His6 catalytic activity in a standard cytidine deamination assay. The inhibitory peptide Vif25-39 corresponds to amino acids 25-39 in HIV-1 HXBII Vif. A fluorescein-conjugated peptide (kindly provided by Dr. Assaf Friedler) was used to assess the peptide uptake by H9 cells. […]"}, "A3G [3]": {"tested_on": "A3G", "assay": "shRNA-mediated knockdown of A3G expression in H9 cells", "assay_type": "cell-based, human", "settings": "Western blot, FIG. 8F", "method": "(§2) For short hairpin (sh) RNA expression, the following puromycin resistance-encoding vectors were used: A3G-specific pLKO.1.shA3G (TRCN0000052188, clone NM_021822.1-398s1 c1; Sigma-Aldrich), having the nucleic acid sequence 5′-CCGG-[…]-CTCGAG-[…]-TTTTTG-3′, as denoted by SEQ ID NO. 92, and the unrelated control cyprinid herpes virus 3 (CyHV3)-specific pLKO.1.shCtr1. […]. Culture supernatants were collected 48 h post transfection, centrifuged for 10 min at 4,000 rpm to remove cell debris and then for 1 h at 35,000 rpm using a swing SW-41 rotor (Beckman). H9 cells were transduced with the concentrated vectors by spinoculation for 1 h at 1,000 rpm and selected with puromycin (1 μg ml^−1) for 3-10 days post transduction.\nTransfected or infected cells were harvested, washed once in PBS, re-suspended in SDS-gel loading buffer and boiled for 10 min. Samples of 5×10^4 cells were analyzed by SDS-12% polyacrylamide gel electrophoresis (SDS-PAGE), followed by transfer of the proteins to polyvinylidene fluoride (PVDF) membrane. HIV-1 proteins were detected by using rabbit anti-Vif and monoclonal anti-Ca-p24 antibodies. A3G protein was identified by rabbit polyclonal anti-A3G."}, "H9 cells [4]": {"tested_on": "H9 cells", "assay": "γ-H2AX / RPA foci after IR in A3G knockdown H9 cells", "assay_type": "cell-based, human", "method": "as §2, §1"}, "H9 cells [5]": {"tested_on": "H9 cells", "assay": "Cell cycle analysis following IR", "assay_type": "cell-based, human", "settings": "H9-shA3G cells, 4 Gy, 20 hours, FIG. 8J", "method": "PBMC, H9 or puromycin-resistant H9-shRNA cells were irradiated (4 Gy) or mock-irradiated. Following 20 h incubation at 37° C., cells were fixed with methanol for 1 h at −20° C., washed with phosphate buffered saline (PBS), treated with RNase A (50 μg ml ^−1) and stained with PI (5 μg ml^−1). The total cellular DNA content was determined by flow cytometry using FACScan. Cell cycle data were analyzed by the CellQuest Pro software and include 10,000 events gated on singlet cells."}},
  "note": "Where a SMILES comes first, the peptide text is derived from it. The star is where a group is joined. Cbz = O=C(OCc1ccccc1)*; CH2F = FC*",
  "data": [
    {"compound": "DLADQLIHLYYFDCF (Viral - Vif peptide) [Vif101-115]", "values": [
      {"measurement": "inhibition of A3G deaminase activity", "setting": "A3G [1]", "value": "inhibited"}
    ]},
    {"compound": "IHLYYFDCF (Viral - Vif peptide) [SEQ ID NO. 71]", "values": [
      {"measurement": "inhibition of A3G mediated deamination by short Vif- and A3F-derived peptides", "setting": "A3G [1]; 0.001 to 10 μM, FIG. 19A", "value": "distinct inhibitory pattern"}
    ]},
    {"compound": "WVRGRHETYLCYEVE (listed as Homo sapiens) [SEQ ID NO. 83]", "values": [
      {"measurement": "inhibition of A3G mediated deamination by A3G-derived peptides", "setting": "A3G [1]", "value": "marked inhibitory effect"}
    ]},
    {"compound": "WRKKRYSTQVDPDLA (Viral - Vif peptide) [Vif89-103, control peptide]", "values": [
      {"measurement": "inhibition of A3G-mediated deamination", "setting": "A3G [1]; peptide at 100 μM", "value": "did not inhibit"},
      {"measurement": "cells containing DSBs", "setting": "H9 cells [2]", "value": "< 8", "unit": "%"}
    ]},
    {"compound": "RMHNDTWVLLNQRRG (listed as Homo sapiens) [SEQ ID NO. 84]", "values": [
      {"measurement": "inhibition of A3G mediated deamination by A3G-derived peptides", "setting": "A3G [1]", "value": "marked inhibitory effect"}
    ]},
    {"compound": "5′-CCGG-GCCAGGTGTATTCCGAACTTA-CTCGAG-TAAGTTCGGAATACACCTGGC-TTTTTG-3′ (DNA CCGGGCCAGGTGTATTCCGAACTTACTCGAGTAAGTTCGGAATACACCTGGCTTTTTG; expressed or natural sequence) [shA3G, A3G-specific shRNA vector TRCN0000052188]", "values": [
      {"measurement": "reduction of A3G expression compared to H9-shCtr1 cells", "setting": "A3G [3]", "value": "70-80%"},
      {"measurement": "RPA recruitment to damage-induced foci following IR", "setting": "H9 cells [4]; H9-shA3G cells, 4 Gy, 2 h, FIG. 10A", "value": "did not form such foci"},
      {"measurement": "γ-H2AX foci in the hours following IR", "setting": "H9 cells [4]; H9-shA3G cells, 4 Gy, up to 8 hours, FIG. 8G", "value": "did not decrease"},
      {"measurement": "G2M arrest following IR", "setting": "H9 cells [5]", "value": "did not undergo G2M arrest"}
    ]},
    {"compound": "COC(=O)C[C@H](NC(=O)[C@H](C)NC(=O)[C@@H](NC(=O)OCc1ccccc1)C(C)C)C(=O)CF", "note": "[z-VAD-fmk, reference compound] (Cbz-Val-Ala-Asp(OMe)-CH2F)", "values": [
      {"measurement": "DSB incidence in the presence of caspase inhibitor", "setting": "H9 cells [4]; 20 μM, 1 hour pre-incubation, γ-H2AX 6 hours after IR, FIG. 8H", "value": "comparable with cells treated with mock"}
    ]},
    {"compound": "GWFYRHHYESTHPRI (Viral - Vif peptide) [Vif37-51]", "values": [
      {"measurement": "inhibition of A3G deaminase activity", "setting": "A3G [1]", "value": "inhibited"}
    ]},
    {"compound": "IVWQVDRMRIRTWKS [Vif9-23]", "values": [
      {"measurement": "inhibition of A3G deaminase activity", "setting": "A3G [1]", "value": "inhibited"}
    ]},
    {"compound": "DCFSESAIRNAILGH (Viral - Vif peptide) [Vif113-127]", "values": [
      {"measurement": "inhibition of A3G deaminase activity", "setting": "A3G [1]", "value": "inhibited"}
    ]}
  ]
}
